# Measured values published in patent US20160184401A1, “NON-AGGLOMERATING BIOCONJUGATES OF AMYLIN AND AMYLIN-MIMETIC COMPOUNDS, COMPOSITIONS COMPRISING THE SAME, AND MAKING AND USE THEREOF” (UNIVERSIDADE FEDERAL DO RIO DE JANEIRO, priority 2013, published 2016).
# Ends that are not written are not given here.
# Experiments:
# RAMP3 = target: T1, RAMP3 (Homo sapiens, UniProt O60896); experiment: RAMP3 coreceptor binding, fluorescence anisotropy of RAMP-FITC; details: duplicate assays, FIG. 6
# T1 sequence (O60896 24-148): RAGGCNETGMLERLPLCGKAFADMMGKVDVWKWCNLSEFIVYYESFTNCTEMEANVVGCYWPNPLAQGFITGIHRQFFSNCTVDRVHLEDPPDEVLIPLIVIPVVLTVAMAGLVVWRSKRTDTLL
# Procedure: (§1) Purified monoPEGylated human amylin was assayed for RAMP2 and RAMPS coreceptor binding interaction.
# (§2) RAMP (receptor activity modifying protein) was labeled with fluorescein isothiocianate for 1 h at 4° C. in PBS ([…]) pH 7.4, and purified by size exclusion chromatography (SEC) in Sepharose G25 (agarose-based chromatography media, provided by the US company GE Healthcare) using the same buffer. Labelling was confirmed by UV absorbance measurements at A280 and A490, allowing estimation of coupling efficiency, relying on about 0.5 fluorescein/RAMP molecule.
# RAMP2 = RAMP2 (Homo sapiens, UniProt O60895); experiment: RAMP2 coreceptor binding, fluorescence anisotropy of RAMP-FITC; details: duplicate assays, FIG. 5
# Sequence of RAMP2 (O60895 43-175, species assumed): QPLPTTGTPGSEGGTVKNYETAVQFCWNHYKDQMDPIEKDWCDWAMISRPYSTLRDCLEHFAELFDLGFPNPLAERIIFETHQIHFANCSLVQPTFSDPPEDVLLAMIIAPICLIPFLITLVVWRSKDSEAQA
# Procedure: as §1, §2
# [1] = Short-term stability with insulin analogues, ThT binding assay; assay type: physicochemical; details: 10 μM of each compound, 10 mM NaH2PO4 pH 7.4, 24h at 25° C.; FIG. 13A-D
# Procedure: The aggregation ratio of human amylin or its PEGylated derivative upon combination with insulin R, insulin detemir, or insulin glargine was tested by ThT binding assay. Combinations (10 μM of each compound) were incubated with 10 mM NaH2PO4 pH 7.4 and in presence of 10 μM ThT, for 24h at 25° C. Fluorescence variations indicating amyloid fibers formation were monitored by exciting at 450 nm and measuring emission at 482 nm.
# [2] = Amyloid aggregation of human amylin by thioflavin T (ThT) binding; assay type: physicochemical; details: pH 7.4, FIG. 7
# Procedure: Purified monoPEGylated human amylin of example 1 was re-suspended in DMSO and diluted to PBS pH 7.4 and allowed to incubate at 37° C. Samples were evaluated for amyloid aggregates by using the amyloid chromogenic probe thioflavin T (ThT). The employment of ThT binding protocols to measure amyloid fibril formation has already been determined in the art (see, e.g., Levine, 1999). The kinetics of amylin (50 μM of free or hAmy-PEG5k) aggregation was performed by incubating the protein in 10 mM NaH2PO4 pH 7.4 at 25° C. Aggregation was followed by the binding of Thioflavin T (ThT) to amyloid fibrils, by adding 160 μL sample with 40 μL ThT 100 μM and monitoring fluorescence by exciting at 450 nm and measuring emission at 482 nm for 24 h
# [3] = Short-term pH-dependent aggregation, ThT fluorescence; assay type: physicochemical; details: pH 3.0 to 10.0, 24h at 25° C.; FIGS. 10, 11
# Procedure: In a first setting, free human amylin, […] incubated in aqueous buffered solutions with different pH (from 3.0 to 10.0) in the presence of ThT. Fluorescence emissions derived from ThT binding to amyloid fibers were monitored for 24h at 25° C. […] These findings support the hypothesis that acylated derivatives of human amylin have increased stability in aqueous solutions, especially, in physiologic pH ranges.
# [4] = Pharmacokinetics in rats, plasma ELISA for human amylin; assay type: in vivo, Harlan Sprague Dawley male rats; details: 100 μg peptide in 500 uL saline, FIG. 8A-C
# Procedure: The pharmacokinetics of the hAmy-PEG5k and hAmy-PEG20k were characterized in vivo in Harlan Sprague Dawley male rats. The animals were housed in a temperature-controlled room with a light-dark cycle of 12 h. Water and food were available ad libitum. Three groups were formed, control (free human amylin, not PEGylated), hAmy-PEG5k and hAmy-PEG20k. Animals received 500 uL of saline containing 100 μg of human amylin peptides, either free human amylin or purified monoPEGylated human amylin derivatives. Blood was collected retro-orbitally from rats (n=3 rats for each time interval), and the plasma was subjected to ELISA assay for human amylin as provided by the manufacturer (Millipore, Cat Number EZHA-52K.
# [5] = Isoelectric focusing (pI determination); assay type: physicochemical; details: IEF, pH 3-10 linear immobilized pH gradient strips; FIG. 9
# Procedure: Sixty micrograms of acetylated human amylin (AcO-hAmy) or hAmyPEG5k were dissolved into 8 M urea, 2% CHAPS and 0.002% bromophenol blue buffer to a final volume of 125 μL. The samples were incubated into a 7 cm pH 3-10 linear immobilized pH gradient strips overnight prior to isoelectric focalization (IEF). The IEF was carried out in MultiPhor II (Pharmacia Biotech) device at 20° C. according to the following conditions, 200 V (1 min), ramping to 3500 V (90 min) and 3500 V (60 min). At the end, the strips were fixed with 0.20% glutaraldehyde (in 30% ethanol, 0.2 M sodium acetate) for 60 min at room temperature, and then stained for peptide identification by Coomassie brilliant blue R-250 (at 0.025% in 40% methanol, 7% acetic acid) for 30 min. The excess of Coomassie was removed by incubation with 0.1% acetic acid until no background visualization. The IEF can be easily calculated from the relationship between displacements in the strips and pH. As depicted in FIG. 9, the acetylation of Lys1 present in AcO-hAmy (FIG. 9A) and the PEGylation in the same site, present in hAmy-PEG5k (FIG. 9B), results in similar effects on the pI of human amylin, […] it to approximately 9.2.
# [6] = Long-term effect of pH on aggregation of hAmyPEG5k; assay type: physicochemical; details: 7 days at 25° C. then 9 days at 37° C. (16 days total); FIG. 12
# Procedure: In another experimental setting, the influence of pH over the stability of the hAmyPEG5k was also tested for a longer period of time (up to 16 days) and at higher energy environments (37° C.). […] (i.e., 16 days total).
substance,measurement,setting,value
"HEWL: unrelated protein hen egg white lisozyme, control for non-specific binding",apparent binding affinity for the coreceptor RAMP3,RAMP3,nonspecific binding
same,apparent binding affinity for the coreceptor RAMP2,RAMP2,nonspecific binding
KCNTATCATQRLANFLVHSSNNFGAILSSTNVGSNTY [human amylin],aggregation (ThT binding),[1],aggregates
same,aggregation (ThT binding to amyloid fibrils),[2]; 50 μM,aggregates very fast
same,aggregation (ThT binding to amyloid fibrils),[2]; in 3 days,almost all free human amylin was aggregated in amyloid form
detemir,aggregation (ThT binding),[1],negligible aggregation
glargine,aggregation (ThT binding),[1],negligible aggregation
"hAmy-PEG5k: monopegylated amylin obtained by the reaction of human amylin and mPEG 5000 Da (KCNTATCATQRLANFLVHSSNNFGAILSSTNVGSNTY; not fully specified (C-terminus, bridges); cysteine pairing not given here; also: mono-PEGylated with mPEG 5000 Da, site not given here)",aggregation kinetics / aqueous stability (ThT),[3],improved aqueous stability and lower or absent formation of amyloid fibers
same,plasma decay / duration of stability in plasma,[4],longer duration of stability in plasma
same,aggregation (ThT binding),[1],does not
same,aggregation (ThT binding to amyloid fibrils),[2]; at day 7,no signs of aggregation
same,pI,[5],approximately 9.2
same,"aggregation at different pH, long term",[6],remains non-aggregated
insulin R: recombinant insulin,aggregation (ThT binding),[1],negligible aggregation
